The nature of the data set: soluble on expression in E. coli; label from the status in PepcDB or PDB records.
Regarding “IDKITYPTRIGAVVFPHKKHQDALGECRGCHEKGPGRIDGFDKVMAHGKGCKGCHEEMKIGPVRCGDCHKGGSTH”, the “soluble on expression in E. coli” value is on record as “soluble”.
Next, “MAHHHHHHMAEDTITFLRTVGKLKETDRTGWVEHGIPNPESVSDHMYRVAVMCMMCPDEKLDRNKLIRMALCHDAGESIVGDISPKMGVSKEDKYNQEKAAVLHLTGLLEKESPLSRELHELWEEYEAQHTPEAQFLKDIDLLEMVAQAHAYELAHPKKDLSSFFVSGEKIKHPWARNIYETLLRTRSSEK”: “soluble”; “DRGRMANIFGANNFYYAKSQAMLYTVSQNADFITAGLVDPVFLPLGNQQRAATHLNEPKSQKILFIVAESWGLPANPELQNATFAKLLAQKDRFSVWESGSFPFIGATVEGEMRELCAYGGLRGFALRRAPDEKFARCLPNRLKQEGYATFAMHGAGSSLYDRFSWYPRAGFQEIKTAENLIGKKTCAIFGGVCDSELFGEVSAFFKKHDKGLFYWMTLTSHADYPESDIFNHRLKCTEYGLPAETDLCRNFSLHTQFFDQLADLIQRPEMKGTEVIIVGDHPPPVGNLNETFRYLKQGHVAWLNFKIK”: “not soluble”.
Next, “MTTEFNEIMKEINDSETIIIHRHVRPDPDAYGSQLGLKNYLKLKFPDKKIFAVGETEPSLDFIGTFDEISDDTYNEALVIVCDTANSPRISDERFNQGRLLVKIDHHPAVDQYGDINFVNDQASSTSEIIFDFISHFNDIPIIDASVARVLYLGIVGDTGRFLFNNTTSHTMGVAGQLLTFPFNHNEELNKMGEKDPKLLPFQGYVLQHFDLNEKGFCKVTITKEILEQFDIAANQASLFVNAIADIQGLKIWVFAVDEGTEIRCRIRSKGIVINDIASDFGGGGHPNASGVSVRDWAQFETLAEALNNKLLEHHHHHH”: “soluble”; “MSEPLLEVKNLKTYFPIKGGIFSRTVGHVKAVDGVSFTIKKGEVFGLVGESGSGKTTIGKTILRLVQKTEGEVKFKGHDVHSLSKEELRKHRPNMQLVFQDPFSSLNPRMRIGEALGEPMLAHGLATKENVREKVTEVLELCGLAPYHIDRYPHEFSGGQRQRIVIARAMVLNPEFIVADEPVAALDVSIQAQIINLFSELQEKKGLSYLFISHDLSVVEHLCTKIGIMYLGTIVETAPRDELFTNPLHPYTKALLSAVPIPDPTVKRERIILEGDIPSPANPPSGCCFHTRCPFATDICKQTGNSVMLVKSTLLLVIMYKREGLFQKLKESFFIY”: “not soluble”; “MEGLGRSCLWLRRELSPPRPRLLLLDCRSRELYESARIGGALSVALPALLLRRLRRGSLSVRALLPGPPLQPPPPAPVLLYDQGGGRRRRGEAEAEAEEWEAESVLGTLLQKLREEGYLAYYLQGGFSRFQAECPHLCETSLAGRAGSSMAPVPGPVPVVGLGSLCLGSDCSDAESEADRDSMSCGLDSEGATPPPVGLRASFPVQILPNLYLGSARDSANLESLAKLGIRYILNVTPNLPNFFEKNGDFHYKQIPISDHWSQNLSRFFPEAIEFIDEALSQNCGVLVHCLAGVSRSVTVTVAYLMQKLHLSLNDAYDLVKRKKSNISPNFNFMGQLLDFERSLRLEERHSQEQGSGGQASAASNPPSFFTTPTSDGAFELAPT”: “soluble”.
Consider “ALGDTLTITLGGSGGTAKVLRKINQDGYTSEYYLPETSSSFRAKVRHTKESVKPNQVQYERHNVEFTETVYASGSTPEFVRQAYVVIRHKVGDVSATVSDLGEALSFYLNEALYGKLIGWES”, for which the “soluble on expression in E. coli” value is reported as “soluble”.
With “MKIVIAPDSYKESLSALEVATAIEQGFREIWPDADYLKLPLADGGEGTVEAMVEATAGRIVHVEVTGPLGHRVNAFYGLSGDARSAFIEMAAASGLEQVPPAQRDPLKTTSWGTGELIRHALDAGVEHIIIGIGGSATNDGGAGMVQALGARLRDAQGNDIAQGGIGLETLASIDISGLDKRLSACHIEVACDVTNPLTGKEGASAVFGPQKGATPEMIERLDTALTRYAHLIARDLHVDVLDLAGGGAAGGMGAALYAFCGAQLRRGIEIVTDALHLEACLADADLVITGEGRIDSQTIHGKVPIGVANIAKRYNKPVIGIAGSLTADVSVVHEHGLDAVFSVIYTICTLEDALKNASENVRMTARNVAATLKAGQQLR”, the “soluble on expression in E. coli” value was “not soluble”.
Next, “MNRYRKILVAGIIDQEEQPALKRALDIANRTTKPSEITLFCTTYDFSYEMTSMLSADERMAMRNGVVSQKVKMLNDVIADYSKSDHVTITIKVVWHNRPYEAIINEIFDDSYNILIKATRQHAKLETVFFTPTDWHLLRKSPIPVLLVKERPWPENGNILASVHVGSENPAHLQLNDKMVDEAIYFAEVLNSTPHLVNAYPSTPPSIHVELPEFNAVQYKDAIRGHHLTQMKALRQKYGIPEEQTHVYEGPTEEVISEVEDELTAGLVILGTTGRTGLSAIFIGNTAENTLDLLNCDILALKPDGYISPLDPNHIS”: “not soluble”.
Next, “MAHHHHHHMFNNDPLQKYDKELFDLLEKEKNRQIETINLIASENLTNTAVRECLGDRISNKYSEGYPHKRYYGGNDYVDKIEELCYKRALEAFNVSEEEWGVNVQPLSGSAANVQALYALVGVKGKIMGMHLCSGGHLTHGFFDEKKKVSITSDLFESKLYKCNSEGYVDMESVRNLALSFQPKVIICGYTSYPRDIDYKGFREICDEVNAYLFADISHISSFVACNLLNNPFTYADVVTTTTHKILRGPRSALIFFNKKRNPGIDQKINSSVFPSFQGGPHNNKIAAVACQLKEVNTPFFKEYTKQVLLNSKALAECLLKRNLDLVTNGTDNHLIVVDLRKYNITGSKLQETCNAINIALNKNTIPSDVDCVSPSGIRIGTPALTTRGCKEKDMEFIADMLLKAILLTDELQQKYGKKLVDFKKGLVNNPKIDELKKEVVQWAKNLPFA”: “soluble”; “RVLNLEEGPDAFGDYAREKLFVRARFAARQVLDSYSHDIPEEFMASLRRRFEHDINADEDDDDAMTPEERRKIQERRFALFNKVRLEALYASQAELLRARSERDVDPMIVDEVLFEIDSQIIAAEKSTR”: “not soluble”.
Next, “MLTQEHINIIKSTIPLLESAGPALTQHFYQRMFSHNPELKHIFNMTHQKTGRQSVALFEAIAAYAKHIDNLAALTSAVERIAHKHTSFNIQPEHYQIVGHHLLETLRELAPDAFTQPVEEAWTAAYFFLAQVFIDREGALYLERKQALGGWRDGRTFVVREKQVESAYVTSFVLVPADGGAVLDYQPGQYIGIEVTPEGSDYREIRQYSLSHASNGREYRISVKREGVGSDNPGLVSHYLHNNVKVGDSVKLYAPAGDFFYVERERPVVLISAGVGATPMQAILHTLAKQNKSGVTYLYACNSAKEHTFAQETAQLIAQQGWMQQVWYRDESADDVLQGEMQLAELILPIEDGDFYLCGPIGFMQYVVKQLLALGVDKARIHYEVFGPHAQLAA”: “not soluble”; “MASTANMISQLKKLSIAEPAVAKDSHPDVNIVDLMRNYISQELSKISGVDSSLIFPALEWTNTMERGDLLIPIPRLRIKGANPKDLAVQWAEKFPCGDFLEKVEANGPFIQFFFNPQFLAKLVIPDILTRKEDYGSCKLVENKKVIIEFSSPNIAKPFHAGHLRSTIIGGFLANLYEKLGWEVIRMNYLGDWGKQFGLLAVGFERYGNEEALVKDPIHHLFDVYVRINKDIEEEGDSIPLEQSTNGKAREYFKRMEDGDEEALKIWKRFREFSIEKYIDTYARLNIKYDVYSGESQVSKESMLKAIDLFKEKGLTHEDKGAVLIDLTKFNKKLGKAIVQKSDGTTLYLTRDVGAAMDRYEKYHFDKMIYVIASQQDLHAAQFFEILKQMGFEWAKDLQHVNFGMVQGMSTRKGTVVFLDNILEETKEKMHEVMKKNENKYAQIEHPEEVADLVGISAVMIQDMQGKRINNYEFKWERMLSFEGDTGPYLQYAHSRLRSVERNASGITQEKWINADFSLLKEPAAKLLIRLLGQYPDVLRNAIKTHEPTTVVTYLFKLTHQVSSCYDVLWVAGQTEELATARLALYGAARQVLYNGMRLLGLTPVERM”: “soluble”.
As to “MKVLLANPRGFCAGVDRAIEIVKRTIDMLGTPIYVRHEVVHNRFVVDDLKQRGAIFVEELHQVPDGATVIFSAHGVSQAVRRQAAQRGLKVFDATCPLVTKVHLDVARHCRTGRDMILIGHAGHPEVEGTMGQWDQERGTGRIYLVENIDDVATLHVAQPHHLAYTTQTTLSVDDTRNIIDALRQRFPTIQGPKNNDICYATQNRQDAVRELARECDLVLVVGSPNSSNSNRLSELAQREGVASYLIDSAAEIDPAWVIDKHHIGVTAGASAPQVLVDGVLARLYELGAT”, the “soluble on expression in E. coli” value is recorded as “not soluble”.
As for “MPEHTKVSAEDQALLNKFARSYQTQTQLKADVKEAKTLIDNINEASDEILLLDDEDSASIPCRIGSCFVHFNGDSLNEHLEGKKTTAEKVLSEKTSELDAISADMEQIKKVLYAKFGDQINLDAEE”, the entry is “soluble”.
As for “MENMLLWLIFFTPGWTLIDGSEMEWDFMWHLRKVPRIVSERTFHLTSPAFEADAKMMVNTVCGIECQKELPTPSLSELEDYLSYETVFENGTRTLTRVKVQDLVLEPTQNITTKGVSVRRKRQVYGTDSRFSILDKRFLTNFPFSTAVKLSTGCSGILISPQHVLTAAHCVHDGKDYVKGSKKLRVGLLKMRNKSGGKKRRGSKRSRREASGGDQREGTREHLQERAKGGRRRKKSGRGQRIAEGRPSFQWTRVKNTHIPKGWARGGMGDATLDYDYALLELKRAHKKKYMELGISPTIKKMPGGMIHFSGFDNDRADQLVYRFCSVSDESNDLLYQYCDAESGSTGSGVYLRLKDPDKKNWKRKIIAVYSGHQWVDVHGVQKDYNVAVRITPLKYAQICLWIHGNDANCAYG”, the entry is “not soluble”; as for “APSASFERRQGSVNPYIGRSPLVIKSYAEKLEETIAYFEAQGDELNAARTRTVQGIPTFAWISDSATIDTIQPLIADAVAHQEASGEQVLVQLVIYNLPDRDCAAKASDGEFHLDDDGANKYRAYVDRIVAELSTADADKLHFSIVLEPDSLGNMVTNMHVPKCQGAATAYKEGIAYTIASLQKPNIDLYIDAAHGGWLGWNDNLRPSAEIFKETLDLARQITPNATVRGLAINVSNYNPYKTRAREDYTEWNNAYDEWNYVKTLTPHLQAVGFPAQFIVDQGRSGREGIRTEWGQWCNIRNAGFGIRPTTDQAIVDSANVDAIVWVKPGGESDGTSDVNAVRFDENCRSPASHVPAPEAGEWFNEFVVNLVINANPPLEPTYAAAALEHHHHHH”, “soluble”.
With “MVQIIFDSKTGNVQRFVNKTGFQQIRKVDEMDHVDTPFVLVTYTTNFGQVPASTQSFLEKYAHLLLGVAASGNKVWGDNFAKSADTISRQYQVPILHKFELSGTSKDVELFTQEVERVVTKSSAKMDPVK”, the “soluble on expression in E. coli” value was “soluble”.
Turning to “DFEIMAPVGSRESLAAAIQAGADSIYFGIESLNMRARSASTFTVNDLREIAQICDKHGIKSYLTINTIIYDEDIALMRTIVDAAKEAGISAVIAADVAVMAYCCEVGQEVHLSTQLNISNAGALKFYARFADVVVLARELNLKQVRVIYDTIQKEQIKGPNGELVRIEMFCHGALCMAVSGKCYLSLHEMNASANRGACMQICRRAYDVKDKESDIELEVDNKYIMSPKDLKTIHFMDEMIEAGVRVFKIEGRARGPEYVRTVVECYKEAICSYLEGTFTEEKKQAWDERLKTVFNRGFWNGYYLGQRLGEWSKNYGSEATERKVYVGKGIKYFSNIGVAEFLVEAAEMKVGDKLLITGPTTGAVFLTLDEARVDLKPVDVVRKGQHVSFKVPDKVRPSDKLYKLVSPEDLK”, the “soluble on expression in E. coli” value is on record as “not soluble”.
Next, “MSLTPSIISIQSQVVHGHVGNSAAVLPMQGHGVTVAAVPTTLLSNHPGFETVRGRVLESELVGDLLRGVEERGLIETSGYIVSGYLGSRANGEVVASFVKRARRLNPDITYICDPVMGDAALGVFVADQVVSCLCDDLIPLADLLTPNQFEVGLIAGRPLSTWRELEAAVLKIRAPRGARLVVTGCALSDTPDGALENIVFDDKTHTRLTSPRLPLAPAGTGDLYTGLLTAKLARGHTLVEAACHAATSVLDVLQQTMAAGEHEMQLARAITTLGPACKETSEGHHHHHH”: “soluble”.

(Values after the DeepSol protein solubility set.)
